Test [1] has as its target T1, ErbB3 extracellular domain, His-tagged (human, UniProt P21860 20-643).
T1 construct: Expressed in baculovirus-infected Sf9 cells and de-glycosylated for crystallography; also called ErbB3-ECD; ErbB3 ECD; not shown: C-terminal hexa-histidine tag, told in words only
Briefly: SPR (BIAcore T100, 25 C), 2C2 Fab immobilised on CM5 chip, ErbB3 ECD in flow.

The target of test [2] is T2, ErbB3 domain III, His-tagged (human, UniProt P21860 329-521).
T2 construct: also called purified domain III; D3; not shown: His tag
Kind of test: SPR (BIAcore T100, 25 C), 2C2 Fab immobilised on CM5 chip, ErbB3 domain III in flow.

Test [3] has as its target T3, cell-surface expressed ErbB3 (Homo sapiens (Human), UniProt P21860 20-1342).
T3 construct: also called HER3
Kind of test: flow cytometry, Alexa-647-labelled 2C2 titrated on BaF3 cells co-expressing ErbB2 and ErbB3, on ice; single-site binding isotherm.

For test [4], the target named is T4, ErbB3 domain II, His-tagged (human, UniProt P21860 202-328).
T4 construct: also called D2; not shown: His tag
Briefly: ELISA, His-tagged ErbB3 domain II coated on the plate, 2C2 titrated, HRP anti-human secondary antibody, chemiluminescence.

In test [5] the target is T5, ErbB3 domain IV, His-tagged (human, UniProt P21860 522-643).
T5 construct: also called D4; not shown: His tag
Kind of test: ELISA, His-tagged ErbB3 domain IV coated on the plate, 2C2 titrated, HRP anti-human secondary antibody, chemiluminescence.

Test [6] deals with T2, ErbB3 domain III, His-tagged. Kind of test: ELISA, His-tagged ErbB3 domain III coated on the plate, 2C2 titrated, HRP anti-human secondary antibody, chemiluminescence.
In test [7] the target is T6, ErbB3 domain I, His-tagged (human, UniProt P21860 20-201).
T6 construct: also called D1; not shown: His tag
Briefly: ELISA, His-tagged ErbB3 domain I coated on the plate, 2C2 titrated, HRP anti-human secondary antibody, chemiluminescence.

The target in test [8] is T1, ErbB3 extracellular domain, His-tagged. Briefly: SPR (BIAcore T100), Fab immobilised on a CM5 chip, ErbB3-ECD passed over in rising concentrations, long dissociation, 1:1 binding model.

Numbering of substitutions follows the chain as printed. In names and notes the source's numbering stands.

Consider 4 molecules from patent US20170240648A1 (KOLLTAN PHARMACEUTICALS, published 2017).

B1: 2C2 Fab (Fab, V domains shown)
VH: EVQLLESGGGLVQPGGSLRLSCAASGFTFSYYYMQWVRQAPGKGLEWVSYIGSSGGVTNYADSVKGRFTISRDNSKNTLYLQMNSLRAEDTAVYYCARVGLGDAFDIWGQGTMVTVSS
VL: QSVLTQPPSASGTPGQRVTISCSGSLSNIGLNYVSWYQQLPGTAPKLLISRNNQRPSGVPDRFSGSKSGTSASLAISGLRSEDEADYYCAAWDDSPPGEAFGGGTKLTVL
notes: Fab expressed in E. coli (pET26b, pelB signal peptide); also called Fab fragment of 2C2; Fab 2C2
For B1, the Kd in test [1] worked out at 0.166 nM; in test [2], 0.377 nM.

B2: 2C2 antibody (whole antibody used in the examples was 2C2-YTE) (antibody, V domains shown)
VH: B1 VH
VL: B1 VL
notes: Whole anti-ErbB3 antibody of WO 2013/078191
Consider B2, for which the Kd in test [3] is 0.08 nM. In addition, the binding result in test [4], in test [5] and in test [7] was “no binding (tested: about 60 nM (log nM about 1.8))” throughout. Moreover, in test [6], the concentration giving a half-maximal response (EC50 (read off the curve)) is approximately 0.5 nM.

B3: S23R Fab (Fab, V domains shown)
VH: B1 VH
VL: B1 VL with S23R
notes: 2C2 Fab variant with serine to arginine at residue 23 of the light chain (CDR1); also called S23R Fab antibody
For B3, the koff in test [8] is 8.3e-05 s⁻¹.

B4: S25H Fab (Fab, V domains shown)
VH: B1 VH
VL: B1 VL with S25H
notes: 2C2 Fab variant with serine to histidine at residue 25 of the light chain (CDR1), made by QuikChange mutagenesis; also called S25H Fab antibody
For B4, the koff in test [8] was 5.5e-05 s⁻¹.
